# According to patent US20060253917A1 (published 2006):
# Ends that are not written are not given here.
# T1: OsMADS45 aa 61-248 (Oryza sativa, UniProt P0C5B0 61-248)
# T1 construct: prey, AD fusion; also called PN20231
# T1 sequence: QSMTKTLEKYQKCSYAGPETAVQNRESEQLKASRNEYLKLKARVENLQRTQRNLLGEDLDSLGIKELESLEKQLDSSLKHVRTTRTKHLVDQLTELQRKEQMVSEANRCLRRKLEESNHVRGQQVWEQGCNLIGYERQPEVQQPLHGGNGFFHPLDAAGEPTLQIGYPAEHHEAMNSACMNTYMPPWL
# T2: Os018989-4003 aa 90-220 (Oryza sativa)
# T2 construct: bait, Gal4 DBD fusion; also called PN21044
# T2 chain: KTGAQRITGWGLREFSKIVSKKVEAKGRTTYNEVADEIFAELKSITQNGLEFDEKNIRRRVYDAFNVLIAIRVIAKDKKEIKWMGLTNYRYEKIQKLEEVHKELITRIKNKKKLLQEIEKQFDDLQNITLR
# T3: OsHOS59 aa 1-206 (Oryza sativa, UniProt Q94LW4 113-311)
# T3 construct: bait, Gal4 DBD fusion; also called PN20559
# T3 sequence: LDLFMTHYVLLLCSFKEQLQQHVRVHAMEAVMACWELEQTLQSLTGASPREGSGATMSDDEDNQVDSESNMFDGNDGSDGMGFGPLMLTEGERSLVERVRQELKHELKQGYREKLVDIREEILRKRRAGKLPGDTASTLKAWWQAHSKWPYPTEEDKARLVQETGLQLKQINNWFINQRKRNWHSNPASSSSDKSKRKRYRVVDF
# T4: OsMADS45 aa 50-198 (Oryza sativa, UniProt P0C5B0 50-198)
# T4 construct: bait, Gal4 DBD fusion; also called PN20231; O. sativa MADS box protein MADS45
# T4 sequence: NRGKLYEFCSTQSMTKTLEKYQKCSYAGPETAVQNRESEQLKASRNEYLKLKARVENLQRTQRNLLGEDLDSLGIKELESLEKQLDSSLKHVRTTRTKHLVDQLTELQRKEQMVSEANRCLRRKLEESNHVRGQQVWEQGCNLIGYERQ
# T5: OsSGT1 aa 200-368 (Oryza sativa, UniProt Q0JL44 200-367)
# T5 construct: bait, Gal4 DBD fusion; also called PN20285
# T5 sequence: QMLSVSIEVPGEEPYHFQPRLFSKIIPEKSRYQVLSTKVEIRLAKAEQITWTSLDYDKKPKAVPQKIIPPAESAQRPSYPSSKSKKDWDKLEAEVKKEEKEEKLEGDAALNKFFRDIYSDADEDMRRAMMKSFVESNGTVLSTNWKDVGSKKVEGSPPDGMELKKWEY
# T6: OsCYCOS2 aa 50-233 (Oryza sativa, UniProt A2YH60 50-233)
# T6 construct: bait, Gal4 DBD fusion; also called PN20257; O. sativa Cyclin OsCYCOS2
# T6 chain: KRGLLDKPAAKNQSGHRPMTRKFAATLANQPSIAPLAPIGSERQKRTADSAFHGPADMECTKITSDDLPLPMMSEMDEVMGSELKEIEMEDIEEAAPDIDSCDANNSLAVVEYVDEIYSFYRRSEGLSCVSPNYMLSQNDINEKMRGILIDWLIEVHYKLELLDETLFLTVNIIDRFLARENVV
# B1: OsRAP1B aa 30-180 (other)
# chain: KKANEISVLCDAEVALIIFSTKGKLYEYATDSCMDKILERYERYSYAEKVLISAESDTQGNWCHEYRKLKAKVETIQKCQKHLMGEDLESLNLKELQQLEQQLENSLKHIRSRKSQLMLESINELQRKEKSLQEENKVLQKELVEKQKVQK
# notes: bait, Gal4 DBD fusion; also called PN20232
# B2: OsAAK72891 aa 342-638 (other)
# chain: LQEKTEELFKFKREKGLLTLKNDVEFEPLRKKIPQIISRMDQIISKNIKMPSLCMTNDGLDERCISAKRIDSLYYENQHLRGLLADNMKDVKELSSQLSEASKEMSIQLSSEDDLLRQIAKIKEEYEDLQIEAGVRDGVYQTITRKLLDDSMNSMHDAATNFSTELSSLEAMISEKEKALCLSNEENRMLKEKIAELEQCLIQDKQEDPEVIKQESTEIILRDIEVAPHISPRRSHETPKQDMQYDELVKLNSSLEIASAALKEVENKNIDYNGIFTKNEQEKQLECILISIMKLSK
# notes: prey, AD fusion; also called PN26317; O. sativa Putative Myosin Heavy Chain
# B3: OsAAK72891 aa 322-549 (other)
# chain: EIITYFKSEMSKLKRMHELDLQEKTEELFKFKREKGLLTLKNDVEFEPLRKKIPQIISRMDQIISKNIKMPSLCMTNDGLDERCISAKRIDSLYYENQHLRGLLADNMKDVKELSSQLSEASKEMSIQLSSEDDLLRQIAKIKEEYEDLQIEAGVRDGVYQTITRKLLDDSMNSMHDAATNFSTELSSLEAMISEKEKALCLSNEENRMLKEKIAELEQCLIQDKQED
# notes: prey, AD fusion; also called PN26317
# B4: OsPN23829 aa 1-247 (other)
# chain: MALSVEKTSSGREYKVKDLSQADFGRLEIELAEVEMPGLMACRAEFGPSQPFKGARISGSLHMTIQTAVLIETLTALGAEVRWCSCNIFSTQDHAAAAIARDSAAVFAWKGETLEEYWWCTERCLDWGVGGGPDLIVDDGGDATLLIHEGVKAEEEFEKSGKVPDPESTDNAEFKIVLTIIRDGLKSDPSKYRKMKERLVGVSEETTTGVKRLYQMQETGALLFPAINVNDSVTKSKFDNLYGCRHS
# notes: prey, AD fusion
# B5: OsPN30858 aa 230-400 (other)
# chain: VRTFLERTHERCRASYMEAVLEKQSYILLSRNDVESLMRLDPANLSLQNSFGQLDHSIPDAEAVEVEIELSDLLLDMCPIKQENLIHDDQKLILLASLSDSLEYLADSVERLGESFINSSTMLENKNHIHQGRHTRSTSAIPKSLASLANEYRRLAIDCVRVLRLEMQLET
# notes: prey, AD fusion; also called Novel Protein PN30858
# B6: OsPN23829 prey clone -4-226 (other)
# chain: MALSVEKTSSGREYKVKDLSQADFGRLEIELAEVEMPGLMACRAEFGPSQPFKGARISGSLHMTIQTAVLIETLTALGAEVRWCSCNIFSTQDHAAAAIARDSAAVFAWKGETLEEYWWCTERCLDWGVGGGPDLIVDDGGDATLLIHEGVKAEEEFEKSGKVPDPESTDNAEFKIVLTIIRDGLKSDPSKYRKMKERLVGVSEETTTGVKRLYQMQETGALLFPA
# notes: prey, AD fusion
# B7: OsPN23829 prey clone -2-195 (other)
# chain: MALSVEKTSSGREYKVKDLSQADFGRLEIELAEVEMPGLMACRAEFGPSQPFKGARISGSLHMTIQTAVLIETLTALGAEVRWCSCNIFSTQDHAAAAIARDSAAVFAWKGETLEEYWWCTERCLDWGVGGGPDLIVDDGGDATLLIHEGVKAEEEFEKSGKVPDPESTDNAEFKIVLTIIRDGLKSDPSKYRKM
# notes: prey, AD fusion
# B8: OsMADS14 aa 124-223 (other)
# chain: ELQQLEQQLENSLKHIRSRKSQLMLESINELQRKEKSLQEENKVLQKELVEKQKVQKQQVQWDQTQPQTSSSSSSFMMREALPTTNISNYPAAAGERIED
# notes: prey, AD fusion; also called PN20910
# B9: OsSGT1 aa 9-227 (other)
# chain: LESKAKAAFVDDDFELAAELYTQAIEASPATAELYADRAQAHIKLGNYTEAVADANKAIELDPSMHKAYLRKGAACIRLEEYQTAKAALELGYSFASGDSRFTRLMKECDERIAEELTEVPVKKAEDGAAAPSVASFVEEKDDAANMDNTPPMVEVKPKYRHDFYNSATEVVLTIFAKGVPAENVVVDFGEQMLSVSIEVPGEEPYHFQPRLFSKIIPE
# notes: prey, AD fusion; also called PN20285
# B10: OsMADS14 aa 82-197 (other)
# chain: SAESDTQGNWCHEYRKLKAKVETIQKCQKHLMGEDLESLNLKELQQLEQQLENSLKHIRSRKSQLMLESINELQRKEKSLQEENKVLQKELVEKQKVQKQQVQWDQTQPQTSSSSS
# notes: as for B8
# B11: PN23949 aa 244-418 (other)
# chain: HKLKSSLILMPMVSLLLLLLIRVLGRNRISPSPALSTLPKDEVERMVEEADKFAQEDKEKRDAIDTKNQADSVVYQTEKQLKELGDKVPAPVKEKVDAKLNELKEAIAGGSTQSMKDAMAALNEEVMQIGQAMYNQQPNAGAAGPTPGADAGPTSSGGKGPNDGDVIDADFTDSN
# notes: prey, AD fusion; also called HSP70-like
# B12: OsPN29117 aa 11-160 (other)
# chain: GPAVRLRVSHGASFRDVAVPAHSTFGELKGVLTQATGVEPERQRLFFRGKEKSDNEFLHTAGVKDGAKLLLLEKPAPANVEQRAEPVIMDESMMKACEAVGRVRAEVDRLSAKVCDLEKSVFAGRKIEDKDFVVLTELLMMELLKLDGIE
# notes: prey, AD fusion
# B13: OsPN29117 aa 29-160 (other)
# chain: VPAHSTFGELKGVLTQATGVEPERQRLFFRGKEKSDNEFLHTAGVKDGAKLLLLEKPAPANVEQRAEPVIMDESMMKACEAVGRVRAEVDRLSAKVCDLEKSVFAGRKIEDKDFVVLTELLMMELLKLDGIE
# notes: prey, AD fusion
# B14: PN23297 aa 980-1160 (other)
# chain: LRLTLERRLRAAGEEAKSVEILKRDKLIESLSAKCAAAKSAAQSEHDKNLLLQRQLDDSLREITMLRSSKIMTAEAERENSNLKNLVESLSKNNSSLEYELTSARKGSDATMKKLKDVEGKCNHLQQNLDKLQEKLTNMENENHVLRQKALNMSPLNNMPMTTKAFPQKFATPIGLPNGEQ
# notes: prey, AD fusion; also called 15451591; O. sativa Putative Myosin Heavy Chain
# B15: PN23416 aa 130-176 (other)
# chain: YFEKQRAMNQVRQRVFQQAVQGALGTLNSCLNTELHFRTIRANISIL
# modifications: not fully specified
# notes: prey, AD fusion; also called Chloroplast ATPase I Subunit
# B16: OsPN23274 aa 79-210 (other)
# chain: GELPRSASLCLREVLLVLQRFKAIVADCSARSRMRLLLESDEMEAELRELNHDLATLLDLLPVVELGLADDVLDVLALASRQCRRCSPAPESEEALKASVLSLIQEIEREIVPERERLEEILVEVGINDPAS
# notes: prey, AD fusion; also called Novel Protein PN23274, Similar to A. thaliana ARM Repeat-Containing Protein
# B17: OsPN23495 aa 39-165 (other)
# chain: RLMVLRMAMDIQKFMQNPQLHEFEFQHFPTSYLRCAAHRVAQHYGLETTVADSLVDGSVSKIVAKKTSESKLPVIALSEVPSKQARNEHEAAEKLKFVICPRPKAFQNGAGDAGAKNNAARTVEERI
# notes: prey, AD fusion; also called Novel protein PN23495
# B18: OsPN23495 aa 12-198 (other)
# chain: PPAAAEDGRVTSHVDPFLVEALDNPRHRLMVLRMAMDIQKFMQNPQLHEFEFQHFPTSYLRCAAHRVAQHYGLETTVADSLVDGSVSKIVAKKTSESKLPVIALSEVPSKQARNEHEAAEKLKFVICPRPKAFQNGAGDAGAKNNAARTVEERIEEYNKARARIFNGSISDIEGTSDLGALSVARDE
# notes: prey, AD fusion
# Key:
# OsMADS45 aa 61-248 = target: T1, OsMADS45 aa 61-248; assay: Y2H; output trait library
# Procedure, shortened: (§1)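 Using an automated, high-throughput yeast two-hybrid assay provided by Myriad Genetics Inc. (Salt Lake City, Utah), protein-protein interactions were detected. Against either the input trait or the output trait rice prey library, a bait clone encoding a defined amino-acid fragment of a rice protein was screened. The encoding sequences of the prey clones that were retrieved were then compared against databases by BLAST to identify the interacting proteins.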
# Os018989-4003 aa 90-220 = target: T2, Os018989-4003 aa 90-220; assay: Y2H; input trait library
# Procedure, shortened: as §1
# OsHOS59 aa 1-206 = target: T3, OsHOS59 aa 1-206; assay: Y2H; output trait library
# Procedure, shortened: as §1
# OsTFX1 aa 400-629 = target: T7, OsTFX1 aa 400-629 (Oryza sativa); assay: Y2H; output trait library
# T7 construct: bait, Gal4 DBD fusion; also called PN19697; O. sativa Putative Transcription Factor X1
# Procedure, shortened: as §1
# OsMADS45 aa 50-198 [1] = target: T4, OsMADS45 aa 50-198; assay: Y2H; output trait library
# Procedure, shortened: as §1
# OsSGT1 aa 200-368 = target: T5, OsSGT1 aa 200-368; assay: Y2H; output trait library
# Procedure, shortened: (§2)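 Protein interactions were tested in an automated, high-throughput yeast two-hybrid screen supplied by Myriad Genetics Inc. Fragments of rice proteins, defined by amino-acid range, served as bait against rice prey clone libraries. Interacting prey clones were retrieved from the output trait library. The sequences encoding the retrieved fragments were compared by BLAST analysis against databases to identify the full-length genes. Each value records whether an interaction was detected.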
# OsHSP70 aa 138-360 = target: T8, OsHSP70 aa 138-360 (Oryza sativa); assay: Y2H; output trait library
# T8 construct: bait, Gal4 DBD fusion; also called PN20775; heat shock protein hsp70
# Procedure, shortened: as §2
# OsCYCOS2 aa 50-233 = target: T6, OsCYCOS2 aa 50-233; assay: Y2H; input trait library
# Procedure, shortened: as §1
# OsMADS45 aa 50-198 [2] = target: T4, OsMADS45 aa 50-198; assay: Y2H; input trait library
# Procedure, shortened: as §1
# T8 sequence (chain, as listed by the source): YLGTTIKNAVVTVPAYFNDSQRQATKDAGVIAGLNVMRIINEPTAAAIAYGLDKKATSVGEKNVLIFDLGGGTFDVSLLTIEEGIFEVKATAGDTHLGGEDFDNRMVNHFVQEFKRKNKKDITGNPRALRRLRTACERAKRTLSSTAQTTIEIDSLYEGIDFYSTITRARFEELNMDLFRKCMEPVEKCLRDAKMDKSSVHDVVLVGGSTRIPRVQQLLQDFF
# T7 sequence (chain, as listed by the source): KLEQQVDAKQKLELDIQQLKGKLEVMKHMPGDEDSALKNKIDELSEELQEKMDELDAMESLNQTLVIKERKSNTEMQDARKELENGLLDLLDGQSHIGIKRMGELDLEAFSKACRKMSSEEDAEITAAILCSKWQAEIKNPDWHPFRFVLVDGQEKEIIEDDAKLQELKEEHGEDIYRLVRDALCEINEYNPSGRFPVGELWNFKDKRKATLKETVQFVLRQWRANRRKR
binder,measurement,setting,value
B1,binding result,OsMADS45 aa 61-248,binds
B2,binding result,Os018989-4003 aa 90-220,binds
B3,binding result,Os018989-4003 aa 90-220,binds
B4,binding result,OsHOS59 aa 1-206,binds
B5,binding result,OsHOS59 aa 1-206,binds
B6,binding result,OsTFX1 aa 400-629,binds
B7,binding result,OsTFX1 aa 400-629,binds
B8,binding result,OsMADS45 aa 50-198 [1],binds
B9,binding result,OsSGT1 aa 200-368,binds
B10,binding result,OsMADS45 aa 50-198 [1],binds
B11,binding result,OsSGT1 aa 200-368,binds
B12,binding result,OsHSP70 aa 138-360,binds
B13,binding result,OsHSP70 aa 138-360,binds
B14,binding result,OsCYCOS2 aa 50-233,binds
B15,binding result,OsCYCOS2 aa 50-233,binds
B16,binding result,OsCYCOS2 aa 50-233,binds
B17,binding result,OsMADS45 aa 50-198 [2],binds
B18,binding result,OsMADS45 aa 50-198 [2],binds
